Experiment [1] deals with T1, USUV strain Vienna-2001 whole virus (E protein on virions) (Usutu virus Vienna-2001, UniProt Q5WPU5, strain).
T1 construct: envelope (E) protein of Usutu virus strain Vienna-2001, cut from the polyprotein, as it stands on whole virions coated on the plate; The assay used whole virus; The other proteins of the virion are not written; also called USUV Vienna-2001; source: virus expanded in C6/36 cells, precipitated with 8% PEG8000, resuspended in NTE buffer
In words: ELISA; virus ELISA: PEG-precipitated USUV Vienna-2001 (8.1 × 10^6 pfu in 50 μl) coated on the plate, blocked with 5% BSA, scFv 2.5-20 μg/ml for 1 hr at 37°C, detected by HRP anti-His, 450 nm. The following applies: one partner purified.

The target in experiment [2] is T2, soluble E (sE) protein of USUV strain Bologna-2009 (Usutu virus strain Bologna-2009, UniProt R4HE74, strain).
T2 construct: also called sE of USUV; USUV sE; source: Drosophila S2 cells, provided by Prof; Karin Stiasny and Lena Roßbacher
In words: far-Western, overlay or dot blot; western blot at one amount: 0.5 μg of E protein DIII and 0.5 or 0.25 μg of sE per well on a 15% SDS gel, probed with 5 μg of scFv in 10 ml PBST, then mouse anti-HA and HRP goat anti-mouse. The following applies: both partners purified. (Immunoblotting shows a protein as a band on a membrane.)

The target of experiment [3] is T3, USUV E protein DIII group B (Usutu virus, sequence group B, strain).
T3 construct: 103 amino acids, 11.0 kDa; also called USUV B; USUV DIII group B
T3 chain: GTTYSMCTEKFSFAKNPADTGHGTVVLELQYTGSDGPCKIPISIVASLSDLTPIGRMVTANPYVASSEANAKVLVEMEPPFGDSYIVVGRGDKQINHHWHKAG
In words: SPR; Biacore T200; scFv captured by its His-tag on a CM5 chip (His Capture Kit), E protein DIII as analyte in two-fold dilutions (31-2,000 nM; WNV also 100-32,000 nM), multi-cycle kinetics, 25°C, PBS with 0.05% Tween 20, 30 μl/min; 1:1 kinetic fit (legend of Figure 4), steady-state affinity model named for KD in the methods. The settings on record: both partners purified. For orientation: In SPR one partner is held on a chip, and binding of the other changes the refractive index at the surface.

The target of experiment [4] is T4, USUV E protein DIII group I (Usutu virus, sequence group I, strain).
T4 construct: 103 amino acids, 10.9 kDa; also called USUV I; USUV DIII group I
T4 chain: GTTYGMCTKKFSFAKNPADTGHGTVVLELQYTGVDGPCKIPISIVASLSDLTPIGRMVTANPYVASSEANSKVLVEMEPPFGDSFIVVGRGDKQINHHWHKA
Described as above. The following applies: both partners purified.

The target of experiment [5] is T5, soluble E (sE) protein of WNV strain NY-1999 (West Nile virus NY-1999 (NY99), UniProt Q9Q6P4, strain).
T5 construct: whole ectodomain of the envelope (E) protein of West Nile virus strain NY-1999 (NY99); also called sE of WNV; WNV NY99 sE; source: Drosophila S2 cells, provided by Prof; Karin Stiasny and Lena Roßbacher
The experiment in a line: far-Western, overlay or dot blot; western blot at one amount: 0.5 μg of E protein DIII and 0.5 or 0.25 μg of sE per well on a 15% SDS gel, probed with 5 μg of scFv in 10 ml PBST, then mouse anti-HA and HRP goat anti-mouse. The following applies: both partners purified.

For another experiment, the target named is T6, WNV E protein DIII (West Nile virus NY99 (also called 2741), strain).
T6 construct: domain III of the envelope (E) protein of West Nile virus; 103 amino acids, 10.9 kDa; also called WNV DIII; WNV E protein DIII NY99 strain
T6 chain: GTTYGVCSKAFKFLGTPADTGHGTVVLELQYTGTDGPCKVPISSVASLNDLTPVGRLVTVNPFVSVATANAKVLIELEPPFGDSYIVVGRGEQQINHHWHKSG
In words: SPR; Biacore T200; scFv captured by its His-tag on a CM5 chip (His Capture Kit), E protein DIII as analyte in two-fold dilutions (31-2,000 nM; WNV also 100-32,000 nM), multi-cycle kinetics, 25°C, PBS with 0.05% Tween 20, 30 μl/min; 1:1 kinetic fit (legend of Figure 4), steady-state affinity model named for KD in the methods. The settings on record: both partners purified.

Where “and” joins values, the source holds several entries; their conditions need not be identical. Equal entries are not always repeated.

B1: scFv G1 (scFv, V domains shown)
VH: AVTLDESGGGLQTPGGGLSLVCKASGFDFSRYGMNWVRQAPGKGLEWVAGISPDGSGTWYATAVKGRATISRDNGQSTVRLQLNNLRAEDTATYYCTRGNGDSFDAWGHGTEVIVSS
VL: ALTQPSSVSANLGGTVKITCSGGSYSYGWYQQKSPGSAPVTVIYYNDKRPSDIPSRFSGSKSGSTGTLTITGVQADDEAVYFCGGFDSSAGYVGIFGAGTTLTVL
notes: chicken light chain variable region (V lambda) of G1, N-terminal part of the scFv; long linker between V lambda and VH; From a chicken immune phage display library in pComb3XSS; Could not be held stably on the SPR chip; source: E. coli TOP10, purified (IMAC, HisTrap FF); not shown: His6, C-terminal, kept; HA, C-terminal, kept
As to B1, the binding result in experiment [1] and in experiment [2] was “binds” throughout.

B2: scFv D2.2 (scFv, V domains shown)
VH: AVTLDESGGGLQTPGGALSLVCKGSGFTFSSHAMMWVRQAPGKGLEWVAGISRDGSTYYGAAVKGRATISRDDGQSTVRLQLNNLRAEDTGTYFCAKDVYGYCDTISGCEAGTIDAWGHGTEVIVSS
VL: ALTQPSSVSANLGETVKITCSGSSGSYGWYQQKSPGSAPVTVIYYNDKRPSDIPSRFSGSKSGSTGTLTITGVQADDEAVYFCGSEDSSSTYAGIFGAGTTLTVL
notes: chicken light chain variable region (V lambda) of D2.2, N-terminal part of the scFv; long linker between V lambda and VH; chicken heavy chain variable region (VH) of D2.2; From a chicken immune phage display library in pComb3XSS; source: E. coli TOP10, purified (IMAC, HisTrap FF); not shown: His6, C-terminal, kept; HA, C-terminal, kept
For orientation: Kd means the concentration at which binding is half-saturated. By koff is commonly meant the rate constant with which the complex falls apart. Lower therefore signals slow dissociation. The kon is the rate constant with which the complex forms. Low values mean slower complex formation, high ones faster complex formation. For B2, the binding result in experiment [1] was “binds”. Moreover, in experiment [3], the Kd was 230 nM and 250 nM; the off-rate constant (koff) is 0.074 s⁻¹ and 0.069 s⁻¹; the kon is 326000 M⁻¹ s⁻¹ and 273000 M⁻¹ s⁻¹.

B3: scFv A8 (scFv, V domains shown)
VH: AVTLDESGGGLQTPGGGLSLVCKASGFTMSSYHMGWVRQAPGKGLEYVVGIDNTGRYTDYGAAVKGRATISRDNGQSTLRLQLNNLRAEDTGTYFCAKSAYLGRGCWDAELCAGEIDAWGHGTEVIVSS
VL: ALTQPSSVSANLGGTVKITCSGGYSGYGWYQQKSPGSAPVTLIYDNTKRPSDIPSRFSGSKSGSTGTLTITGVQAEDEAVYYCGSGDSRNYVGIFGAGTTLTVR
notes: chicken light chain variable region (V lambda) of A8, N-terminal part of the scFv; long linker between V lambda and VH; chicken heavy chain variable region (VH) of A8; From a chicken immune phage display library in pComb3XSS; source: E. coli TOP10, purified (IMAC, HisTrap FF); not shown: His6, C-terminal, kept; HA, C-terminal, kept
Regarding B3, in experiment [1], the binding result is recorded as “binds”. For the same molecule, in experiment [3], the affinity, expressed as Kd, was 100 nM; the koff was determined as 0.002 s⁻¹; the kon stood at 20000 M⁻¹ s⁻¹. Also, in experiment [4], binding was put at a Kd of 60 nM, the koff was 0.001 s⁻¹ and the kon came out at 19800 M⁻¹ s⁻¹.

B4: scFv A12 (scFv, V domains shown)
VH: AVTLDESGGGLQTPGGALSLVCKASGFTFSSYHMGWVRQAPGKGLEYVAGIDNTGRYTDYGAAVKGRATISRDNGQSTLRLQLNNLRAEDTGTYFCAKSAYLGRGCWGAELCAGEIDTWGHGTEVIVSS
VL: ALTQPSSVSANPGETVQITCSGSSNKYGNNYGWYQQKSPGSAPVTVIYDDDKRPSDIPPRFSGSKSGSTNTLTITGVQADDEAVYFCGAYDNSDSGIFGAGTALTVL
notes: chicken light chain variable region (V lambda) of A12, N-terminal part of the scFv; long linker between V lambda and VH; chicken heavy chain variable region (VH) of A12; From a chicken immune phage display library in pComb3XSS; source: E. coli TOP10, purified (IMAC, HisTrap FF); not shown: His6, C-terminal, kept; HA, C-terminal, kept
For B4, the binding result in experiment [1] is recorded as “binds”. Besides, in experiment [3], the Kd was 300 nM and 290 nM; the off-rate (koff) was 0.012 s⁻¹ and 0.01 s⁻¹; the kon was 39600 M⁻¹ s⁻¹ and 34200 M⁻¹ s⁻¹. In experiment [4], the Kd was 140 nM and 130 nM; the koff is 0.007 s⁻¹ and 0.006 s⁻¹; the kon is 48600 M⁻¹ s⁻¹ and 46600 M⁻¹ s⁻¹.

B5: scFv A9 (scFv, V domains shown)
VH: AVTLDESGGGLQTPGGTLSLVCKASGFTFSSVNMFWVRQAPGKGLEYVASISNTGSSTNYGAAVKGRATISRDNGQSTVRLQLNNLRAEDTATYFCAKDAYGYSFTVTPGYTIDAWGHGTEVIVSS
VL: ALTQPSSVSANLGGTVKITCSGGGGSYGWYQQKSPGSAPVTVIYENTKRPSNIPSRFSGSKSGSTSTLTITGVQAEDEAVYYCGSTDNNNIFGAGTTLTVL
notes: chicken light chain variable region (V lambda) of A9, N-terminal part of the scFv; long linker between V lambda and VH; chicken heavy chain variable region (VH) of A9; From a chicken immune phage display library in pComb3XSS; also called cross-reactive scFv; source: E. coli TOP10, purified (IMAC, HisTrap FF); not shown: His6, C-terminal, kept; HA, C-terminal, kept
As for B5, the binding result in experiment [1], in experiment [2] and in experiment [5] was “binds” each time. In addition, the dissociation constant Kd in experiment [3] is 410 nM and 360 nM; in experiment [4], 290 nM and 300 nM; in the experiment with WNV E protein DIII it was 100 nM. Moreover, the koff in experiment [3] is 0.062 s⁻¹ and 0.059 s⁻¹; in experiment [4] it was 0.05 s⁻¹ and 0.048 s⁻¹; with WNV E protein DIII, 0.105 s⁻¹ and 0.094 s⁻¹. Moreover, the kon in experiment [3] is 152000 M⁻¹ s⁻¹ and 166000 M⁻¹ s⁻¹; in experiment [4], 170000 M⁻¹ s⁻¹ and 168000 M⁻¹ s⁻¹; with WNV E protein DIII it was 1.04e+06 M⁻¹ s⁻¹ and 970000 M⁻¹ s⁻¹.

(Values after PMC7586906, “Development and characterization of specific anti‐Usutu virus chicken‐derived single chain variable fragment antibodies” (Protein Science : A Publication of the Protein Society, 2020).)
